Patent publication US20150344570A1 (published 2015)

B1: GpH7-A5/GpH7-B3 variant Y300_01G/GpL16-k0 (antibody, human IgG1, kappa)
heavy 1: not shown
heavy 2: not shown
light: DIVMTQSPLSLPVTPGEPASISCQASESLVHSNRNTYLHWYLQKPGQSPQLLIYKVSNRFSGVPDRFSGSGSGTDFTLKISRVEAEDVGVYYCSQNTHVPPTFGQGTKVEIERTVAAPSVFIFPPSDEQLKSGTASVVCLLNNFYPREAKVQWKVDNALQSGNSQESVTEQDSKDSTYSLSSTLTLSKADYEKHKVYACEVTHQGLSSPVTKSFNRGEC
notes: He Ab: mutation in one H chain only; also called He Ab
B2: GpH7-A5/GpH7-B3 variant A327_04F/GpL16-k0 (antibody, human IgG1, kappa)
heavy 1: not shown
heavy 2: not shown
light: B1 light
notes: as for B1
B3: GpH7-A5/GpH7-B3 variant L234_20W/GpL16-k0 (antibody, human IgG1, kappa)
heavy 1: not shown
heavy 2: not shown
light: B1 light
notes: also called He Ab L234_20W
B4: GpH7-A5/GpH7-B3 variant S239_08L/GpL16-k0 (antibody, human IgG1, kappa)
heavy 1: not shown
heavy 2: not shown
light: B1 light
notes: also called He Ab S239_08L
B5: GpH7-A5/GpH7-B3 variant S239_10E/GpL16-k0 (antibody, human IgG1, kappa)
heavy 1: not shown
heavy 2: not shown
light: B1 light
notes: also called He Ab S239_10E
B6: GpH7-A5/GpH7-B3 variant S267_09D/GpL16-k0 (antibody, human IgG1, kappa)
heavy 1: not shown
heavy 2: not shown
light: B1 light
notes: also called He Ab S267_09D
B7: GpH7-A5/GpH7-B3 variant S267_10E/GpL16-k0 (antibody, human IgG1, kappa)
heavy 1: not shown
heavy 2: not shown
light: B1 light
notes: also called He Ab S267_10E
B8: GpH7-A5/GpH7-B3 variant S337_07I/GpL16-k0 (antibody, human IgG1, kappa)
heavy 1: not shown
heavy 2: not shown
light: B1 light
notes: also called He Ab S337_07I
B9: GpH7-A5/GpH7-B3 variant S337_08L/GpL16-k0 (antibody, human IgG1, kappa)
heavy 1: not shown
heavy 2: not shown
light: B1 light
notes: also called He Ab S337_08L
B10: GpH7-A5/GpH7-B3 variant S337_20W/GpL16-k0 (antibody, human IgG1, kappa)
heavy 1: not shown
heavy 2: not shown
light: B1 light
notes: also called He Ab S337_20W
B11: GpH7-A5/GpH7-B3 variant T335_18N/GpL16-k0 (antibody, human IgG1, kappa)
heavy 1: not shown
heavy 2: not shown
light: B1 light
notes: also called He Ab T335_18N
B12: GpH7-A5/GpH7-B3 variant T335_20W/GpL16-k0 (antibody, human IgG1, kappa)
heavy 1: not shown
heavy 2: not shown
light: B1 light
notes: also called He Ab T335_20W
B13: GpH7-A5/GpH7-B3 variant V266_08L/GpL16-k0 (antibody, human IgG1, kappa)
heavy 1: not shown
heavy 2: not shown
light: B1 light
notes: also called He Ab V266_08L
B14: GpH7-A5/GpH7-B3 variant Y296_04F/GpL16-k0 (antibody, human IgG1, kappa)
heavy 1: not shown
heavy 2: not shown
light: B1 light
notes: also called He Ab Y296_04F
B15: GpH7-A5/GpH7-B3 variant Y296_09D/GpL16-k0 (antibody, human IgG1, kappa)
heavy 1: not shown
heavy 2: not shown
light: B1 light
notes: also called He Ab Y296_09D
B16: GpH7-A5/GpH7-B3 variant Y296_16H/GpL16-k0 (antibody, human IgG1, kappa)
heavy 1: not shown
heavy 2: not shown
light: B1 light
notes: also called He Ab Y296_16H
B17: GpH7-A5/GpH7-B3 variant A330_16H/GpL16-k0 (antibody, human IgG1, kappa)
heavy 1: not shown
heavy 2: not shown
light: B1 light
notes: also called He Ab A330_16H
B18: GpH7-A5/GpH7-B3 variant E333_09D/GpL16-k0 (antibody, human IgG1, kappa)
heavy 1: not shown
heavy 2: not shown
light: B1 light
notes: also called He Ab E333_09D
B19: GpH7-A5/GpH7-B3 variant G236_03V/GpL16-k0 (antibody, human IgG1, kappa)
heavy 1: not shown
heavy 2: not shown
light: B1 light
notes: also called He Ab G236_03V
B20: GpH7-A5/GpH7-B3 variant G236_07I/GpL16-k0 (antibody, human IgG1, kappa)
heavy 1: not shown
heavy 2: not shown
light: B1 light
notes: also called He Ab G236_07I
B21: GpH7-A5/GpH7-B3 variant H268_02A/GpL16-k0 (antibody, human IgG1, kappa)
heavy 1: not shown
heavy 2: not shown
light: B1 light
notes: also called He Ab H268_02A
B22: GpH7-A5/GpH7-B3 variant H268_18N/GpL16-k0 (antibody, human IgG1, kappa)
heavy 1: not shown
heavy 2: not shown
light: B1 light
notes: also called He Ab H268_18N
B23: GpH7-A5/GpH7-B3 variant H268_19Q/GpL16-k0 (antibody, human IgG1, kappa)
heavy 1: not shown
heavy 2: not shown
light: B1 light
notes: also called He Ab H268_19Q
B24: GpH7-A5/GpH7-B3 variant I336_06M/GpL16-k0 (antibody, human IgG1, kappa)
heavy 1: not shown
heavy 2: not shown
light: B1 light
notes: also called He Ab I336_06M
B25: GpH7-A5/GpH7-B3 variant I336_08L/GpL16-k0 (antibody, human IgG1, kappa)
heavy 1: not shown
heavy 2: not shown
light: B1 light
notes: also called He Ab I336_08L
B26: GpH7-A5/GpH7-B3 variant K326_06M/GpL16-k0 (antibody, human IgG1, kappa)
heavy 1: not shown
heavy 2: not shown
light: B1 light
notes: also called He Ab K326_06M
B27: GpH7-A5/GpH7-B3 variant K326_10E/GpL16-k0 (antibody, human IgG1, kappa)
heavy 1: not shown
heavy 2: not shown
light: B1 light
notes: also called He Ab K326_10E
B28: GpH7-A5/GpH7-B3 variant K326_19Q/GpL16-k0 (antibody, human IgG1, kappa)
heavy 1: not shown
heavy 2: not shown
light: B1 light
notes: also called He Ab K326_19Q
B29: GpH7-A5/GpH7-B3 variant K334_04F/GpL16-k0 (antibody, human IgG1, kappa)
heavy 1: not shown
heavy 2: not shown
light: B1 light
notes: also called He Ab K334_04F
B30: GpH7-A5/GpH7-B3 variant K334_08L/GpL16-k0 (antibody, human IgG1, kappa)
heavy 1: not shown
heavy 2: not shown
light: B1 light
notes: also called He Ab K334_08L
B31: GpH7-A5/GpH7-B3 variant K334_16H/GpL16-k0 (antibody, human IgG1, kappa)
heavy 1: not shown
heavy 2: not shown
light: B1 light
notes: also called He Ab K334_16H
B32: GpH7-A5/GpH7-B3 variant L235_04F/GpL16-k0 (antibody, human IgG1, kappa)
heavy 1: not shown
heavy 2: not shown
light: B1 light
notes: also called He Ab L235_04F
B33: GpH7-A5/GpH7-B3 variant L235_15Y/GpL16-k0 (antibody, human IgG1, kappa)
heavy 1: not shown
heavy 2: not shown
light: B1 light
notes: also called He Ab L235_15Y
B34: GpH7-A5/GpH7-B3 variant L235_20W/GpL16-k0 (antibody, human IgG1, kappa)
heavy 1: not shown
heavy 2: not shown
light: B1 light
notes: also called He Ab L235_20W
B35: GpH7-A5/GpH7-B3 variant L328_06M/GpL16-k0 (antibody, human IgG1, kappa)
heavy 1: not shown
heavy 2: not shown
light: B1 light
notes: also called He Ab L328_06M
B36: GpH7-A5/GpH7-B3 variant L328_14T/GpL16-k0 (antibody, human IgG1, kappa)
heavy 1: not shown
heavy 2: not shown
light: B1 light
notes: also called He Ab L328_14T
B37: GpH7-A5/GpH7-B3 variant L328_20W/GpL16-k0 (antibody, human IgG1, kappa)
heavy 1: not shown
heavy 2: not shown
light: B1 light
notes: also called He Ab L328_20W
B38: GpH7-A5/GpH7-B3 variant S239_09D/GpL16-k0 (antibody, human IgG1, kappa)
heavy 1: not shown
heavy 2: not shown
light: B1 light
notes: also called He Ab S239_09D
B39: GpH7-A5/GpH7-B3 variant S267_02A/GpL16-k0 (antibody, human IgG1, kappa)
heavy 1: not shown
heavy 2: not shown
light: B1 light
notes: also called He Ab S267_02A
B40: GpH7-A5/GpH7-B3 variant S324_02A/GpL16-k0 (antibody, human IgG1, kappa)
heavy 1: not shown
heavy 2: not shown
light: B1 light
notes: also called He Ab S324_02A
B41: GpH7-A5/GpH7-B3 variant S337_09D/GpL16-k0 (antibody, human IgG1, kappa)
heavy 1: not shown
heavy 2: not shown
light: B1 light
notes: also called He Ab S337_09D
B42: GpH7-A5/GpH7-B3 variant S337_10E/GpL16-k0 (antibody, human IgG1, kappa)
heavy 1: not shown
heavy 2: not shown
light: B1 light
notes: also called He Ab S337_10E
B43: GpH7-A5/GpH7-B3 variant T335_01G/GpL16-k0 (antibody, human IgG1, kappa)
heavy 1: not shown
heavy 2: not shown
light: B1 light
notes: also called He Ab T335_01G
B44: GpH7-A5/GpH7-B3 variant T335_07I/GpL16-k0 (antibody, human IgG1, kappa)
heavy 1: not shown
heavy 2: not shown
light: B1 light
notes: also called He Ab T335_07I
B45: GpH7-A5/GpH7-B3 variant T335_10E/GpL16-k0 (antibody, human IgG1, kappa)
heavy 1: not shown
heavy 2: not shown
light: B1 light
notes: also called He Ab T335_10E
B46: GpH7-A5/GpH7-B3 variant T335_13S/GpL16-k0 (antibody, human IgG1, kappa)
heavy 1: not shown
heavy 2: not shown
light: B1 light
notes: also called He Ab T335_13S
B47: GpH7-A5/GpH7-B3 variant T335_15Y/GpL16-k0 (antibody, human IgG1, kappa)
heavy 1: not shown
heavy 2: not shown
light: B1 light
notes: also called He Ab T335_15Y
B48: GpH7-A5/GpH7-B3 variant T335_16H/GpL16-k0 (antibody, human IgG1, kappa)
heavy 1: not shown
heavy 2: not shown
light: B1 light
notes: also called He Ab T335_16H
B49: GpH7-A5/GpH7-B3 variant T335_19Q/GpL16-k0 (antibody, human IgG1, kappa)
heavy 1: not shown
heavy 2: not shown
light: B1 light
notes: also called He Ab T335_19Q
B50: GpH7-A5/GpH7-B3 variant V266_07I/GpL16-k0 (antibody, human IgG1, kappa)
heavy 1: not shown
heavy 2: not shown
light: B1 light
notes: also called He Ab V266_07I
B51: GpH7-A5/GpH7-B3 variant Y296_18N/GpL16-k0 (antibody, human IgG1, kappa)
heavy 1: not shown
heavy 2: not shown
light: B1 light
notes: also called He Ab Y296_18N

Target: T1, FcγRIIb (human, UniProt P31994 43-217)
T1 construct: extracellular domain; Soluble extracellular domain with C-terminal His tag, used as analyte; also called FcgRIIb; CD32B; not shown: His tag at the C terminus
T1 sequence (looked up): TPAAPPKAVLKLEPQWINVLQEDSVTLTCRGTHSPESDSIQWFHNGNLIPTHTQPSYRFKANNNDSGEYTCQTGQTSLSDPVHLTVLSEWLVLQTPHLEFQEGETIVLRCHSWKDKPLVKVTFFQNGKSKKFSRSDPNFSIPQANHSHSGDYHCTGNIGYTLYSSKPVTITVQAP
Test: SPR (Biacore), captured antibody, FcγR as analyte, relative binding
Protocol: (§1) The heterodimerized antibodies He Abs in which one of the H chains was introduced with an alteration were assayed for their binding activities to each activating FcγR and inhibitory FcγR according to the method described in Example 4. […] The activating FcγRs in FIGS. 26, 27, 28, and 29 are FcγRIa, FcγRIIa (R), FcγRIIa (H), and FcγRIIIa, respectively.
(§2) Analysis of interaction between objective antibody and the FcγR was carried out using Biacore T100 (GE Healthcare). HBS-EP+ (GE Healthcare) was used as the running buffer, and the measurement temperature was set to 25° C. Chips produced by immobilizing the antigen peptide by the amine coupling method to a Series S Sencor Chip CM5 (GE Healthcare), or alternatively, chips produced by allowing preliminarily biotinylated antigen peptides to interact with and immobilize onto a Series S Sensor Chip SA (certified) (GE Healthcare) were used. Antibodies of interest were captured onto an antigen peptide-immobilized chip, and allowed to interact to each FcγR diluted with running buffer. To regenerate and repeatedly use the chip, the antibodies captured on the chip were washed off by reacting 10 mM glycine-HCl, pH 1.5.

Binder | He/Con_2b
B1 | 48.4 % of GpH7-A5/GpH7-B3/GpL16-k0
B2 | 63.7 % of GpH7-A5/GpH7-B3/GpL16-k0

Target: T2, FcγRIa (human, UniProt P12314 16-292)
T2 construct: extracellular domain; Soluble extracellular domain with C-terminal His tag, used as analyte; also called FcgRI; CD64; not shown: His tag at the C terminus
Test: as above
Protocol: as §1, §2

T2 sequence (P12314 16-292): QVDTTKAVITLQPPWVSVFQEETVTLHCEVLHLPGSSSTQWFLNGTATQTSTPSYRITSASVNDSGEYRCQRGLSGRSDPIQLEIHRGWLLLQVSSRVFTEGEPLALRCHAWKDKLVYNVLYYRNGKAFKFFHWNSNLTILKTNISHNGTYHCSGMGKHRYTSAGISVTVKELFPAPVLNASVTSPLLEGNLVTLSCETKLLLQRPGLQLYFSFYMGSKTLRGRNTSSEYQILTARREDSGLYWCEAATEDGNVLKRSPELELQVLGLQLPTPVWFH

Binder | He/Con_1a
B1 | 116 % of GpH7-A5/GpH7-B3/GpL16-k0
B2 | 99.1 % of GpH7-A5/GpH7-B3/GpL16-k0

Target: FcγRIIa H (human, UniProt P12318 34-217)
Test: SPR Biacore, captured antibody, FcγR analyte; vs GpH7-A5/GpH7-B3/GpL16-k0 = 100

FcγRIIa H, sequence (P12318 34-217): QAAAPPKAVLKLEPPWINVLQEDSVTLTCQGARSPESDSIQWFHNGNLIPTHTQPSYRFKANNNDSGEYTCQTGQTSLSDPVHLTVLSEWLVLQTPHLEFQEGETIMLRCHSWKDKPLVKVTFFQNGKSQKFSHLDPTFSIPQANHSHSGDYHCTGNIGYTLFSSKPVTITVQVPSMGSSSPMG

Binder | He/Con_2aH
B3 | 114 % of control
B4 | 105 % of control
B5 | 112 % of control
B6 | 105 % of control
B7 | 102 % of control
B8 | 101 % of control
B9 | 100 % of control
B10 | 102 % of control
B11 | 103 % of control
B12 | 105 % of control
B13 | 104 % of control
B14 | 100 % of control
B15 | 104 % of control
B16 | 104 % of control
B17 | 101 % of control
B18 | 103 % of control
B19 | 119 % of control
B20 | 115 % of control
B21 | 114 % of control
B22 | 112 % of control
B23 | 102 % of control
B24 | 106 % of control
B25 | 106 % of control
B26 | 103 % of control
B27 | 102 % of control

Binder | He/Con_2aH
B28 | 101 % of control
B29 | 106 % of control
B30 | 104 % of control
B31 | 104 % of control
B32 | 111 % of control
B33 | 122 % of control
B34 | 118 % of control
B35 | 104 % of control
B36 | 116 % of control
B37 | 113 % of control
B38 | 114 % of control
B39 | 120 % of control
B40 | 102 % of control
B41 | 107 % of control
B42 | 102 % of control
B43 | 103 % of control
B44 | 108 % of control
B45 | 108 % of control
B46 | 106 % of control
B47 | 106 % of control
B48 | 105 % of control
B49 | 103 % of control
B50 | 106 % of control
B51 | 104 % of control
